This is an account of results in paper PMC4051425.

Where two headings read alike, the source gives them in different places.

Data set [1] concerns the target T1, TRBP-RBD2 (second dsRBD of TRBP) (UniProt Q15633 159-227).
T1 sequence: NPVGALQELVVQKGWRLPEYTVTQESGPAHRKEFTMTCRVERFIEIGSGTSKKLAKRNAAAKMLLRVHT
In words: EMSA. In general terms: Mobility shift assays separate free from complexed probe on a gel.

In data set [2] the target is T1, TRBP-RBD2 (second dsRBD of TRBP). As to the kind of experiment: EMSA. This is another data set of the same source.

B1: 25-bp dsRNA (dsRNA)
RNA 1: GCUUGUCGGGAGCGCCACCCUCUGC
RNA 2: GCAGAGGGUGGCGCUCCCGACAAGC
In the case of B1, in data set [1], the binding result is listed as “binds”.

B2: 25-bp dsDNA (dsDNA)
DNA 1: GCTTGTCGGGAGCGCCACCCTCTGC
DNA 2: GCAGAGGGTGGCGCTCCCGACAAGC
As for B2, in data set [2], the binding result is reported as “no binding”.
